According to paper PMC3422339, “Interactions and CCAAT-Binding of Arabidopsis thaliana NF-Y Subunits” (PLoS ONE, 2012):

B1: His-tagged recombinant AtNF-YB2 (natural protein, Arabidopsis thaliana, UniProt Q9FGJ3 1-190, looked up)
chain: MGDSDRDSGGGQNGNNQNGQSSLSPREQDRFLPIANVSRIMKKALPANAKISKDAKETMQECVSEFISFVTGEASDKCQKEKRKTINGDDLLWAMTTLGFEDYVEPLKVYLQRFREIEGERTGLGRPQTGGEVGEHQRDAVGDGGGFYGGGGGMQYHQHHQFLHQQNHMYGATGGGSDSGGGAASGRTRT
notes: AtNF-YB2, Arabidopsis thaliana; also called His-AtNF-YB2; source: E. coli BL21, purified (Nickel-agarose); found in inclusion bodies, denatured and renatured
B2: recombinant AtNF-YA6 (His-tagged) (natural protein)
chain: not shown
notes: AtNF-YA6, Arabidopsis thaliana; 308 residues as printed; source: E. coli, purified (Nickel-agarose)
B3: recombinant mouse NF-YA (347 residues) (natural protein)
chain: not shown
notes: mouse NF-YA; 347 residues as printed; source: recombinant

Assays:
Conditions in all cases: both partners purified
[1] = molecular target: T1, His-tagged recombinant AtNF-YC3 (Arabidopsis thaliana, UniProt Q9ZVL3 1-217); assay: co-renaturation of denatured subunits; single His-tagged HFD subunits from E. coli inclusion bodies, denatured and renatured when mixed together
T1 construct: AtNF-YC3, Arabidopsis thaliana; source: E. coli, purified (Nickel-agarose); found in inclusion bodies, denatured and renatured
T1 sequence (looked up): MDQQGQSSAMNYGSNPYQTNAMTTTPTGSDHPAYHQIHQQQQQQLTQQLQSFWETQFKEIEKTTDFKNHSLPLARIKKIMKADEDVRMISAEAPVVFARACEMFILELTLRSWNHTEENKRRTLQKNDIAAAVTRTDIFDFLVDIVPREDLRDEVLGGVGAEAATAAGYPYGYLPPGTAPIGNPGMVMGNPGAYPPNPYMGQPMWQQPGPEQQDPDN

[2] = molecular target: T2, His-tagged recombinant AtNF-YC7 (Arabidopsis thaliana, UniProt Q9FGP8 1-212); assay: as above
T2 construct: AtNF-YC7, Arabidopsis thaliana; source: E. coli, purified (Nickel-agarose); found in inclusion bodies, denatured and renatured
T2 sequence (looked up): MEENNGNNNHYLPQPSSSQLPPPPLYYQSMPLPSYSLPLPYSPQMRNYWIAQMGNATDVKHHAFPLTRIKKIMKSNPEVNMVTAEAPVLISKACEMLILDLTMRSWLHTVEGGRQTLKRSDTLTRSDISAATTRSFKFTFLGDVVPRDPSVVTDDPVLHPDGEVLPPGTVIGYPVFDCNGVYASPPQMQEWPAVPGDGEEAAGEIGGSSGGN

[3] = molecular target: T3, AtNF-YB2/AtNF-YC3 dimer (recombinant, renatured together) (Arabidopsis thaliana, UniProt Q9FGJ3 1-190; Q9ZVL3 1-217); assay: native gel or EMSA; Figure 5A: recombinant AtNF-YB/AtNF-YC dimers with recombinant AtNF-YA6 or recombinant mouse NF-YA; 32P-labelled CCAAT oligonucleotide; NF-Y buffer, 15 min 20°C; 4.5% polyacrylamide; the read-out is the trimer bound to DNA
T3 construct: AtNF-YB2, Arabidopsis thaliana; as the chain of m23; AtNF-YC3, Arabidopsis thaliana; as the chain of m43; source: E. coli, each subunit purified from inclusion bodies, denatured and renatured when mixed together
T3 sequence (looked up) 1: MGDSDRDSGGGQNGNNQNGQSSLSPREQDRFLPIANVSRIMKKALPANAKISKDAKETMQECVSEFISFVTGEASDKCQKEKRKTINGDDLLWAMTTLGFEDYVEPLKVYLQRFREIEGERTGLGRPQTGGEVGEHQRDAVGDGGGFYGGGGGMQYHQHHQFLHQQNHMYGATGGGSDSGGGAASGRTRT
T3 sequence (looked up) 2: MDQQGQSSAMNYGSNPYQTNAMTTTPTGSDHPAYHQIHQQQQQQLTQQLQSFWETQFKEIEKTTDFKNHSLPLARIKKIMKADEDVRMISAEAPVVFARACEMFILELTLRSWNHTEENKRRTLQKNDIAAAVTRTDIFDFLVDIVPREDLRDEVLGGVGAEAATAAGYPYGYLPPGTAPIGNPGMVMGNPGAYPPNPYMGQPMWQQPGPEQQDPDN

Row | Binder | binding result [1] | binding result [2] | binding result [3]
1 | B1 | binds | binds | 
2 | B2 |  |  | binds
3 | B3 |  |  | binds
